B1: Trinucleotide repeat-containing gene 6C protein (Homo sapiens), Q9HCJ0-1 (parent)
chain: MATGSAQGNFTGHTKKTNGNNGTNGALVQSPSNQSALGAGGANSNGSAARVWGVATGSSSGLAHCSVSGGDGKMDTMIGDGRSQNCWGASNSNAGINLNLNPNANPAAWPVLGHEGTVATGNPSSICSPVSAIGQNMGNQNGNPTGTLGAWGNLLPQESTEPQTSTSQNVSFSAQPQNLNTDGPNNTNPMNSSPNPINAMQTNGLPNWGMAVGMGAIIPPHLQGLPGANGSSVSQVSGGSAEGISNSVWGLSPGNPATGNSNSGFSQGNGDTVNSALSAKQNGSSSAVQKEGSGGNAWDSGPPAGPGILAWGRGSGNNGVGNIHSGAWGHPSRSTSNGVNGEWGKPPNQHSNSDINGKGSTGWESPSVTSQNPTVQPGGEHMNSWAKAASSGTTASEGSSDGSGNHNEGSTGREGTGEGRRRDKGIIDQGHIQLPRNDLDPRVLSNTGWGQTPVKQNTAWEFEESPRSERKNDNGTEAWGCAATQASNSGGKNDGSIMNSTNTSSVSGWVNAPPAAVPANTGWGDSNNKAPSGPGVWGDSISSTAVSTAAAAKSGHAWSGAANQEDKSPTWGEPPKPKSQHWGDGQRSNPAWSAGGGDWADSSSVLGHLGDGKKNGSGWDADSNRSGSGWNDTTRSGNSGWGNSTNTKANPGTNWGETLKPGPQQNWASKPQDNNVSNWGGAASVKQTGTGWIGGPVPVKQKDSSEATGWEEPSPPSIRRKMEIDDGTSAWGDPSNYNNKTVNMWDRNNPVIQSSTTTNTTTTTTTTTSNTTHRVETPPPHQAGTQLNRSPLLGPGRKVSSGWGEMPNVHSKTENSWGEPSSPSTLVDNGTAAWGKPPSSGSGWGDHPAEPPVAFGRAGAPVAASALCKPASKSMQEGWGSGGDEMNLSTSQWEDEEGDVWNNAASQESTSSCSSWGNAPKKGLQKGMKTSGKQDEAWIMSRLIKQLTDMGFPREPAEEALKSNNMNLDQAMSALLEKKVDVDKRGLGVTDHNGMAAKPLGCRPPISKESSVDRPTFLDKDGGLVEEPTPSPFLPSPSLKLPLSHSALPSQALGGIASGLGMQNLNSSRQIPSGNLGMFGNSGAAQARTMQQPPQPPVQPLNSSQPSLRAQVPQFLSPQVQAQLLQFAAKNIGLNPALLTSPINPQHMTMLNQLYQLQLAYQRLQIQQQMLQAQRNVSGSMRQQEQQVARTITNLQQQIQQHQRQLAQALLVKQPPPPPPPPHLSLHPSAGKSAMDSFPSHPQTPGLPDLQTKEQQSSPNTFAPYPLAGLNPNMNVNSMDMTGGLSVKDPSQSQSRLPQWTHPNSMDNLPSAASPLEQNPSKHGAIPGGLSIGPPGKSSIDDSYGRYDLIQNSESPASPPVAVPHSWSRAKSDSDKISNGSSINWPPEFHPGVPWKGLQNIDPENDPDVTPGSVPTGPTINTTIQDVNRYLLKSGGKLSDIKSTWSSGPTSHTQASLSHELWKVPRNSTAPTRPPPGLTNPKPSSTWGASPLGWTSSYSSGSAWSTDTSGRTSSWLVLRNLTPQIDGSTLRTLCLQHGPLITFHLNLTQGNAVVRYSSKEEAAKAQKSLHMCVLGNTTILAEFAGEEEVNRFLAQGQALPPTSSWQSSSASSQPRLSAAGSSHGLVRSDAGHWNAPCLGGKGSSELLWGGVPQYSSSLWGPPSADDSRVIGSPTPLTTLLPGDLLSGESL

How the values were obtained:
pabp_drome pAbp, P21187 [1] = variants of: B1; details: with pabp_drome pAbp
pabp_drome pAbp, P21187, sequence (P21187 whole entry): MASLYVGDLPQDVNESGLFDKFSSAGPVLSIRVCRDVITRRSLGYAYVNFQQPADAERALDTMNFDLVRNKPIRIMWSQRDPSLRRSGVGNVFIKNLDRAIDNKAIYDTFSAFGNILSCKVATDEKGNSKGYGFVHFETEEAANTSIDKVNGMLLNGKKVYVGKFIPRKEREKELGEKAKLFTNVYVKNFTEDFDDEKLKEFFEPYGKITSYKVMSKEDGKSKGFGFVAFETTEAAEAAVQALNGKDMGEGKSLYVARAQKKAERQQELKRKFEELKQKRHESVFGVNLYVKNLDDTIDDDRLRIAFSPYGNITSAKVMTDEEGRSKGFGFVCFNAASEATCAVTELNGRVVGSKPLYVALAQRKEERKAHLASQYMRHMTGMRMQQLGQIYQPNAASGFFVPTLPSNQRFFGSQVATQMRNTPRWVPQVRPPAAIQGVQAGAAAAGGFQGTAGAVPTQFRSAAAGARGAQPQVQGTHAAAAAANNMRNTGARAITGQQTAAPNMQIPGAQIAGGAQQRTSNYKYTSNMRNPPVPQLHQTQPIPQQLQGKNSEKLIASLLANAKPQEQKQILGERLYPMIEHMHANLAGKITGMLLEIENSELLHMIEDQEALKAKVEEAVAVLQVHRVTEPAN

[2] = variants of: B1; details: with cnot1_human CNOT1, A5YKK6
cnot1_human CNOT1, A5YKK6, sequence (A5YKK6 whole entry): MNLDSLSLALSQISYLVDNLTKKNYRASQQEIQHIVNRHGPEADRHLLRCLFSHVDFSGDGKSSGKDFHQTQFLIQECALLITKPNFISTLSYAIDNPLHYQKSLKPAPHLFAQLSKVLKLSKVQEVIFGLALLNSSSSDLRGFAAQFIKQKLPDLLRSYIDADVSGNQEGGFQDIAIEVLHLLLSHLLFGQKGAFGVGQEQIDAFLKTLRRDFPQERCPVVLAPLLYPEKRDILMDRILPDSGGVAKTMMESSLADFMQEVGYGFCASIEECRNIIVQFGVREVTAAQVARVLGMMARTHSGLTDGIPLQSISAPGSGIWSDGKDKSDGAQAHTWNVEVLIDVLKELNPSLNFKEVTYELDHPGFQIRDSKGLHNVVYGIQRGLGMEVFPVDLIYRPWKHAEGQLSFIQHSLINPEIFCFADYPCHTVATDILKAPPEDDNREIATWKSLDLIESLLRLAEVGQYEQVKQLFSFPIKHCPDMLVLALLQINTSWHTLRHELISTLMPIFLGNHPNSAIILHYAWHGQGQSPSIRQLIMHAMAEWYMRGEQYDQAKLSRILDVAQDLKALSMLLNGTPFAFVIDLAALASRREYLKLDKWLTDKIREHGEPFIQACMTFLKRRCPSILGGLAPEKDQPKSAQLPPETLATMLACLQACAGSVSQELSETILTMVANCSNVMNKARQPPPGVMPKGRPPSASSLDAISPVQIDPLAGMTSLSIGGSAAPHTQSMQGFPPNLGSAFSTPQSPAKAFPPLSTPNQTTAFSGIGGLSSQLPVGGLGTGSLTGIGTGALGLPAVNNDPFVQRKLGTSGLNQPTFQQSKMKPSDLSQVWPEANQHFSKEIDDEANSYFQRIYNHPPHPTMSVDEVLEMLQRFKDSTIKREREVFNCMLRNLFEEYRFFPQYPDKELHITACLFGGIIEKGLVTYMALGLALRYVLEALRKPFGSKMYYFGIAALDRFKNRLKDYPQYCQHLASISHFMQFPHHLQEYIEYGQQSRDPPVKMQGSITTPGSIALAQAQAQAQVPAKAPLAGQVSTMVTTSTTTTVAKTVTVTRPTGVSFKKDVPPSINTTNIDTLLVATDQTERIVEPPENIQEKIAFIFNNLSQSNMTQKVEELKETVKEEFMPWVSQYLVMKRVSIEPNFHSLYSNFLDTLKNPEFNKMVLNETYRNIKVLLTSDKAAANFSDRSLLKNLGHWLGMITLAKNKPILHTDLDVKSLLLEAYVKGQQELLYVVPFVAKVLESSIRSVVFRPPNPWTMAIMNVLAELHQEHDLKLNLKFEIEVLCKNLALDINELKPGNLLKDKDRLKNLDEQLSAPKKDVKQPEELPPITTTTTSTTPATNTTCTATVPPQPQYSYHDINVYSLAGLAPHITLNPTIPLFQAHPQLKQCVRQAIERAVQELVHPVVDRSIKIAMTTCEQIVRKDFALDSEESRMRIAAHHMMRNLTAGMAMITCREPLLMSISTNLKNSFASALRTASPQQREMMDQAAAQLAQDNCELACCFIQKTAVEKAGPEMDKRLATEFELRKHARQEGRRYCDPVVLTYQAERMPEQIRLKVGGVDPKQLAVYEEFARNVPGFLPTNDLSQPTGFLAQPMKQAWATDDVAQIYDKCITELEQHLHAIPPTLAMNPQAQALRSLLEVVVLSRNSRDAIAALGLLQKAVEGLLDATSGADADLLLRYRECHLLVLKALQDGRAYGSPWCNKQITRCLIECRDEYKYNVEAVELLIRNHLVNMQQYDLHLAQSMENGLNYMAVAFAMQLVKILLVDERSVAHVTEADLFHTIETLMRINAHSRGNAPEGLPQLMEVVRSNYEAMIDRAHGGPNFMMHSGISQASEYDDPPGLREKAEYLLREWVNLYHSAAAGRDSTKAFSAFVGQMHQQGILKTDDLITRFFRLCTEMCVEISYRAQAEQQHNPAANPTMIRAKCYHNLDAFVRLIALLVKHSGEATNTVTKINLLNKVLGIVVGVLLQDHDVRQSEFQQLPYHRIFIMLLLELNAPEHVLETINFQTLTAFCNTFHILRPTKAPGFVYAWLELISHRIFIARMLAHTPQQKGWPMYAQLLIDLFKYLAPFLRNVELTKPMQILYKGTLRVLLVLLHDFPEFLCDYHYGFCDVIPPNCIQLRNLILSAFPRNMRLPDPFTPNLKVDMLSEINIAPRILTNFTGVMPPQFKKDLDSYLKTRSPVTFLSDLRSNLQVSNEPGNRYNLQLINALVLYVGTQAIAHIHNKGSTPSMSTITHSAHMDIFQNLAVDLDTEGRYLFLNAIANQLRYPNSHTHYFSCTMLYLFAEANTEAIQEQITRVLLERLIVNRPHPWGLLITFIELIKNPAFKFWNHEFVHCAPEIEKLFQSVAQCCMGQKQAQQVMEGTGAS

pabp_drome pAbp, P21187 [3] = variants of: B1; details: with pabp_drome pAbp; remark: listed apart in the source
pabp_drome pAbp, P21187 [4] = variants of: B1; details: with pabp_drome pAbp; remark: listed apart in the source

Row | effect of a mutation on the interaction (pabp_drome pAbp, P21187 [1]) | effect of a mutation on the interaction [2] | effect of a mutation on the interaction (pabp_drome pAbp, P21187 [3]) | effect of a mutation on the interaction (pabp_drome pAbp, P21187 [4]) | Variant
1 | disrupting interaction |  |  |  | F1389A
2 |  | disrupting interaction | decreasing interaction | decreasing interaction | Q1294A;S1295A;R1296A;L1297A;Q1299A;W1300A

From IntAct's records for PubMed 23463101
